Measurements taken from paper PMC6868718, “Multiple transcription factors co-regulate the Mycobacterium tuberculosis adaptation response to vitamin C” (BMC Genomics, 2019).

B1: Rv0348-His6 (natural protein)
chain: MTISFSSSNLRDDATSGNGDYRLDKLPETTPSTSVFDRADVTYRQFTELHGQARDTRREAHVVELESKTGERARCAPMHALEQLADYGFAWRDIARVVGVSVPAITKWRKGAGVTGENRLKIARLLALIDMLSDRFIGEPASWLEMPIQAGVGITRMDLLERGRYDLVLALASTHTGDGTVEYVLNETDKDWRETVVDNAFESYTAEDGVISIRPKR
notes: also called mosR; not shown: His6, C-terminal, kept

What was measured:
[1] = molecular target: T1, Rv0348 (MosR) (Mycobacterium tuberculosis H37Rv) (UniProt O06299); test: EMSA
T1 sequence: B1 chain

[2] = molecular target: T2, Phosphorylated DevR (DevR~P) (Mycobacterium tuberculosis, UniProt P9WMF9 1-217, phosphorylated using 50 mM acetyl phosphate (residue not stated)); test: native gel or EMSA; settings: both partners purified
T2 construct: DevR, two-component response regulator of Mycobacterium tuberculosis (devR of the Rv3134c-devR-devS operon), phosphorylated in vitro with acetyl phosphate; also called His6-DevR phosphorylated
T2 sequence (P9WMF9 whole entry): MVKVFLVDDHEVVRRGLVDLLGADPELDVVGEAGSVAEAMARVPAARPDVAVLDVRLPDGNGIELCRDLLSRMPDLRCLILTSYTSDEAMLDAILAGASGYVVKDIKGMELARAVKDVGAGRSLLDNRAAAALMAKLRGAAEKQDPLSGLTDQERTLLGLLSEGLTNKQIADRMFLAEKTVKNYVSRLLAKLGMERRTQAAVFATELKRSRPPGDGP

| Molecule | binding [1] | binding result [2] |
| --- | --- | --- |
| TTACTGGCGGGGACCGCTATCTCCCAGGGGCGTTGGTCCCCACCTGAGGGCCGTTAGTCCTTATCGACCGATGACAGACGCAACCCGTCAGGGCGAGAATGAATCTCACCTATCGCACGGGTGGCTCGTCCAGGTCCACAACCATCGCCCAGCTTTTCACAGCAAAGTCCCAGAAATGGCTTACAGTTGCCGACAGCTGCCGAACCAGCGGCCGTC (double strand) [Rv3134c promoter fragment (devR operon promoter)] | no binding | – |
| B1 | – | binds |
